Test results reported in the supplement of paper PMC9233669.
Variants at the floor of the assay were thinned out.

Legend:
biotinyl-Phe-oxazolone = assay: self-aminoacylation, catalytic enhancement (BFO) (fold over background); higher = more active; k-Seq, kA / k0A0; sequences stand for … in GGGAAUGGAUCCACAUCUACGAAUUC…UUCACUGCAGACUUGACGAAGCUG
Summary of the method: (§1)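 Mutagenized RNA pools with a 21-nt variable region (0.43 μM) reacted with each biotinyl-aminoacyl-oxazolone at 2–1250 μM. Reactions ran in 50 μL HEPES/NaCl/KCl/MgCl2/CaCl2 buffer with 5% acetonitrile, pH 6.9–7.0, for 90 minutes at room temperature. Streptavidin-captured RNA was quantified by triplicate qPCR and Illumina sequencing, and per-sequence fraction reacted was fit to a pseudo-first-order model with 1000 bootstraps. Catalytic enhancement is median kA divided by the uncatalyzed rate, the low-activity peak of a bimodal Gaussian fit.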

biotinyl-Leu-oxazolone = assay: self-aminoacylation, catalytic enhancement (BLO) (fold over background); higher = more active; k-Seq, kA / k0A0; sequences stand for … in GGGAAUGGAUCCACAUCUACGAAUUC…UUCACUGCAGACUUGACGAAGCUG
Summary of the method: as §1

biotinyl-Ile-oxazolone = assay: self-aminoacylation, catalytic enhancement (BIO) (fold over background); higher = more active; k-Seq, kA / k0A0; sequences stand for … in GGGAAUGGAUCCACAUCUACGAAUUC…UUCACUGCAGACUUGACGAAGCUG
Summary of the method: as §1

biotinyl-Trp-oxazolone = assay: self-aminoacylation, catalytic enhancement (BWO) (fold over background); higher = more active; k-Seq, kA / k0A0; sequences stand for … in GGGAAUGGAUCCACAUCUACGAAUUC…UUCACUGCAGACUUGACGAAGCUG
Summary of the method: as §1

biotinyl-Met-oxazolone = assay: self-aminoacylation, catalytic enhancement (BMO) (fold over background); higher = more active; k-Seq, kA / k0A0; sequences stand for … in GGGAAUGGAUCCACAUCUACGAAUUC…UUCACUGCAGACUUGACGAAGCUG
Summary of the method: as §1

biotinyl-Val-oxazolone = assay: self-aminoacylation, catalytic enhancement (BVO) (fold over background); higher = more active; k-Seq, kA / k0A0; sequences stand for … in GGGAAUGGAUCCACAUCUACGAAUUC…UUCACUGCAGACUUGACGAAGCUG
Summary of the method: as §1

Row | Sequence | self-aminoacylation (biotinyl-Phe-oxazolone) | self-aminoacylation (biotinyl-Leu-oxazolone) | self-aminoacylation (biotinyl-Ile-oxazolone) | self-aminoacylation (biotinyl-Trp-oxazolone) | self-aminoacylation (biotinyl-Met-oxazolone) | self-aminoacylation (biotinyl-Val-oxazolone)
1 | CUACUUCAAACAAUCGUUCUA [Fam1A.1 aminoacylation ribozyme variant] | 1.08 | 0.559 | 0.582 | 0.631 | 0.545 | 0.801
2 | AUUACCCUGGUAAUAGAGUGA [Fam2.1 aminoacylation ribozyme variant] | 125 | 16.1 | 6.19 | 17.9 | 16.2 | 6.61
3 | AAGUUUGCUAUUAGGCGCAAG [Fam3.1 aminoacylation ribozyme variant] | 0.81 | 0.546 | 0.746 | 0.841 | 0.591 | 0.681
4 | AAGUUUGCGAAUAGUCGAAAG [Fam3.1 aminoacylation ribozyme variant] | 0.796 | 1.11 | 1.05 | 0.83 | 1.17 | 0.733
5 | CCACACUUCAAGCAAUCGCGC [Fam1B.1 aminoacylation ribozyme variant] | 6.7 | 3.04 | 2.08 | 2.44 | 2.16 | 3.35
6 | AAGUGUGCUAAUAGUAGCAAG [Fam3.1 aminoacylation ribozyme variant] | 1.65 | 1.21 | 1.27 | 1.6 | 1.02 | 1.33
7 | AAGUUUGCUAAUCGUCGGAAG [Fam3.1 aminoacylation ribozyme variant] | 1.64 | 0.799 | 0.972 | 1.42 | 0.704 | 0.869
8 | AUUAACCUAGGUCAUCCGGUG [Fam2.2 aminoacylation ribozyme variant] | 29.5 | 4.91 | 3.59 | 5.68 | 5.02 | 3.29
9 | CCACACUGCAAGCAAUCGGUG [Fam1B.1 aminoacylation ribozyme variant] | 31.5 | 7.11 | 3.4 | 5.82 | 4.9 | 3.12
10 | AUUACCCUGAUAAUCGAGUGA [Fam2.1 aminoacylation ribozyme variant] | 39.8 | 10.3 | 4.12 | 11.1 | 9.64 | 4.59
11 | AUUACCCGAGUCAUCGAGUGA [Fam2.1 aminoacylation ribozyme variant] | 62.6 | 8.84 | 4.27 | 10.2 | 8.55 | 4.68
12 | AUUUCCCUGGUCAUCCAGUGA [Fam2.1 aminoacylation ribozyme variant] | 55.4 | 8.35 | 4.3 | 9.93 | 7.52 | 4.5
13 | CCACACUUCAGACAAUCGGUC [Fam1B.1 aminoacylation ribozyme variant] | 1.33 | 1.53 | 1.17 | 1.29 | 0.902 | 1.26
14 | AUUCACCUAGGUCAUCGCGUU [Fam2.2 aminoacylation ribozyme variant] | 12.7 | 3 | 2.48 | 3.66 | 2.62 | 2.39
15 | CUACUUCGAACAAUCGGGCUG [Fam1A.1 aminoacylation ribozyme variant] | 0.645 | 1.24 | 1.3 | 1.57 | 1.02 | 1.54
16 | CAACACUUCAAGCAAUCGGUG [Fam1B.1 aminoacylation ribozyme variant] | 4.92 | 4.86 | 3.09 | 3.87 | 4.13 | 2.73
17 | AUUACCCUGGUCAUCAUGUGA [Fam2.1 aminoacylation ribozyme variant] | 26.2 | 6.36 | 2.67 | 6.97 | 6.44 | 3.17
18 | AUUUCCCUGGUCAUCGCGUGA [Fam2.1 aminoacylation ribozyme variant] | 157 | 20.9 | 9.18 | 22.5 | 18.9 | 10.4
19 | CCACACUUCAAGCUAUAGGUC [Fam1B.1 aminoacylation ribozyme variant] | 0.975 | 0.489 | 0.613 | 0.508 | 0.513 | 0.806
20 | AUUACCCUGGUCAUCGAGGUA [Fam2.1 aminoacylation ribozyme variant] | 10.2 | 5.68 | 2.38 | 5.45 | 7.24 | 3.16
21 | AUUCACCUGGGUCAGCGGGUG [Fam2.2 aminoacylation ribozyme variant] | 36.7 | 6.66 | 4.33 | 4.72 | 5.26 | 4.26
22 | AUUGCCGUGGUCAUCGAGUGA [Fam2.1 aminoacylation ribozyme variant] | 33.7 | 6.18 | 2.89 | 5.71 | 4.92 | 3.45
23 | CCACACUUCAAGCAGUCUGUC [Fam1B.1 aminoacylation ribozyme variant] | 0.562 | 0.353 | 0.339 | 0.305 | 0.383 | 0.478
24 | AUUACCCUGCGCAUCGAGUGA [Fam2.1 aminoacylation ribozyme variant] | 20.5 | 5.76 | 2.03 | 6.75 | 5.86 | 2.56
25 | CCACACUUCGAGCAAUCGAUC [Fam1B.1 aminoacylation ribozyme variant] | 0.547 | 0.487 | 0.471 | 0.387 | 0.361 | 0.481
26 | AUUCACCUAGGCAAUCGGGUG [Fam2.2 aminoacylation ribozyme variant] | 35.4 | 4.75 | 2.52 | 3.92 | 3.95 | 2.98

Row | Sequence | self-aminoacylation (biotinyl-Phe-oxazolone) | self-aminoacylation (biotinyl-Leu-oxazolone) | self-aminoacylation (biotinyl-Ile-oxazolone) | self-aminoacylation (biotinyl-Trp-oxazolone) | self-aminoacylation (biotinyl-Met-oxazolone) | self-aminoacylation (biotinyl-Val-oxazolone)
27 | AUUCGCCUAGGUCAUCGGCUG [Fam2.2 aminoacylation ribozyme variant] | 6.51 | 2.16 | 2.08 | 2.11 | 1.95 | 2.16
28 | AUUCACCUAGGGCAUCGGGUG [Fam2.2 aminoacylation ribozyme variant] | 20.3 | 4.05 | 2.78 | 3.4 | 3.55 | 3
29 | AUUCGCCUAGGUCAACGGGUG [Fam2.2 aminoacylation ribozyme variant] | 27.8 | 6.03 | 2.76 | 3.75 | 4.66 | 2.72
30 | ACUACUCUGGUCAUCGAGUGA [Fam2.1 aminoacylation ribozyme variant] | 36.2 | 8.12 | 4.09 | 7.79 | 5.17 | 3.45
31 | ACACACUUCAAGCAAACGGUC [Fam1B.1 aminoacylation ribozyme variant] | 1.56 | 0.941 | 1.02 | 1.13 | 0.749 | 1.04
32 | AUUAACCUGCUCAUCGAGUGA [Fam2.1 aminoacylation ribozyme variant] | 2.51 | 2.5 | 1.55 | 2.54 | 2.38 | 1.86
33 | AUUACCCUGGUCAUCGAAUGC [Fam2.1 aminoacylation ribozyme variant] | 0.567 | 0.723 | 1.04 | 0.726 | 0.827 | 0.68
34 | AUUACCCUGGUCAUCAAGUGC [Fam2.1 aminoacylation ribozyme variant] | 0.434 | 0.567 | 0.689 | 0.302 | 0.691 | 0.795
35 | AUUCAUCUAGGUCAUAGGGUG [Fam2.2 aminoacylation ribozyme variant] | 10.1 | 3.39 | 2 | 2.83 | 2.63 | 1.87
36 | AAGUUUGCUAAUAGUGGCACG [Fam3.1 aminoacylation ribozyme variant] | 0.682 | 0.622 | 0.684 | 0.733 | 0.636 | 0.689
37 | AUUAUCCUGGUCAUCGAGUGA [Fam2.1 aminoacylation ribozyme variant] | 20.7 | 13.5 | 6.23 | 14.5 | 13 | 6.5
38 | AUGCACCUAGGUCUUCGGGUG [Fam2.2 aminoacylation ribozyme variant] | 40 | 4.14 | 3.64 | 5.59 | 4.93 | 4.2
39 | AAGUUUUCUAAUAGUCGCAAA [Fam3.1 aminoacylation ribozyme variant] | 3.41 | 1.41 | 1.93 | 2.46 | 1.54 | 1.54
40 | AUUACCCCAGUCAUCGAGUGA [Fam2.1 aminoacylation ribozyme variant] | 24.9 | 4.88 | 2.92 | 6.76 | 6.05 | 3.25
41 | AUUACCCUCAUCAUCGAGUGA [Fam2.1 aminoacylation ribozyme variant] | 74.1 | 10.7 | 4.69 | 11.9 | 10.5 | 5.02
42 | AUUACCCGGGUCAUGGAGUGA [Fam2.1 aminoacylation ribozyme variant] | 25.8 | 4.59 | 2.82 | 4.98 | 4.26 | 2.87
43 | CCACACUUCCAGUAAUCGGUC [Fam1B.1 aminoacylation ribozyme variant] | 0.618 | 0.829 | 1.02 | 0.792 | 0.791 | 1.1
44 | AUUCAUCUAGAUCAUCGGGUG [Fam2.2 aminoacylation ribozyme variant] | 14.1 | 4.1 | 2.1 | 3.24 | 2.68 | 2.14
45 | AUUCACCUAGGUGAUCGGGUU [Fam2.2 aminoacylation ribozyme variant] | 9.06 | 2.59 | 1.85 | 1.06 | 1.89 | 1.88
46 | AAGUUGGCUAAUAGUUGCAAG [Fam3.1 aminoacylation ribozyme variant] | 1.86 | 1.09 | 1.39 | 1.92 | 1.53 | 1.29
47 | ACUCACCUAGGUGAUCGGGUG [Fam2.2 aminoacylation ribozyme variant] | 39.2 | 6.01 | 5.05 | 8.44 | 5.21 | 4.87
48 | CUACUUCAAACACUCCGUCUG [Fam1A.1 aminoacylation ribozyme variant] | 0.78 | 0.727 | 0.772 | 0.771 | 0.845 | 0.869
49 | AUUGCCCCGGUCAUCGAGUGA [Fam2.1 aminoacylation ribozyme variant] | 37.5 | 6.75 | 2.79 | 6.57 | 5.22 | 3.18
50 | AUUCGCCUAAGUCAUCGGGUG [Fam2.2 aminoacylation ribozyme variant] | 117 | 15.6 | 7.83 | 11.7 | 12.9 | 7.95
51 | AUUCACCUAGGUCAUGGUGUG [Fam2.2 aminoacylation ribozyme variant] | 0.397 | 0.994 | 0.936 | 0.519 | 0.846 | 0.932
